{"source": "patent US20250382355A1", "about": "(Merck Sharp & Dohme, published 2025)", "binders": {"B1": {"name": "1A11 VHH-Fc (Fc fusion)", "chain": "QVQLVESGGGLVQAGGSLRLSCEVSGSIYSINSMGWYRQAPGKQRELVAGIVSDGRINYADSVKGRFTISRAKNTVYLQMNSLKPEDTAVYYCAADRAFVYAGDYDYLGQGTQVTVSS"}, "B2": {"name": "7A9 VHH-Fc (Fc fusion)", "chain": "QVQLVESGGGLVQAGGSLRLSCSASGGTASRSAMGWFRQAPGKEREFVAGISRRNSGSTYVADSYEDSVKGRFTISRDNAKNTIYLQMNSLKPEDTAVYYCAAEPTLGWYVPRRSVEYEYWGQGTQVTVSS"}, "B3": {"name": "10B8 VHH-Fc (Fc fusion)", "chain": "QVQLVESGGGLVQPGGSLRLSCAASGITLDYYAIAWFRQAPGKEREGVSCFCSSDGDIRYADSVKGRFTISRDNAKNTVYLQMNSLKPEDTAVYYCATERVYSSTWFFHRYSELDFGSWGRGTQVTVSS"}, "B4": {"name": "5A6 VHH-Fc (Fc fusion)", "chain": "QVQLVESGGGLAQAGGSLRLSCATSGLTFSMSAMGWFRQAPGNEREFVGVINWNGGSSRYADSVRGRFTISRDNAKNTVYLQMNSLKPEDTGVYYCAADALNIGTGEVNPRLYDYWGQGTQVMVSS"}, "B5": {"name": "19E10 VHH-Fc (Fc fusion)", "chain": "QVQLVESGGGLVQPGGSLRLSCVASGSTISINSMGWYRQAPGKAREMVATITNDGPIKYADPVKGRFTISRDNPKNTVYLQMNSLKPEDTAVYYCVADRAYWLAGEWEYWGQGTQVTVSS"}, "B6": {"name": "15H7 VHH-Fc (Fc fusion)", "chain": "QVQLVESGGRLVQAGGSLRLSCAAPGRTFRNLTLGWFRQAPGKEREFVASTSWPDDEMTYYTDSVKGRFTISRDNAKNTVYLQMNSLKPEDTAVYYCAAASWSGRSTLSYDYDYWGQGTQVTVST"}, "B7": {"name": "5G11 VHH-Fc (Fc fusion)", "chain": "QVQLVESGGGLVQAGGSLRLSCAASGRTFSIYAVGWFRQAPGKERDFVAGITWSGGTTYYSDSVKGRFTISRDNAKNTVYLQMNNLKPEDTAIYYCAVDTYSMTLSARSYDYWGQGTQVTVSS"}, "B8": {"name": "5D7 VHH-Fc (Fc fusion)", "chain": "QVQLVESGGGLVQAGGSLRLSCAASGRTGSRYIMGWFRQAPGKEREFVAAINWRGDSTYYADSVKGRFTIARDNAKNTAYLQMNSLKPEDTAVYYCVADRGESYYYTRSTEYTYWGQGTQVTVSS"}, "B9": {"name": "15H1 VHH-Fc (Fc fusion)", "chain": "QVQLVESGGGLAQAGGSLRLSCASSGLIFSGSAMGWFRQAPGKEREFVGVISWNGRTTYADSVKGRFTISRDDAVNMVWLQMNNLKPEDTAVYYCAADHLNYGSGDVNPRTYDYWGQGTQVTVSS"}, "B10": {"name": "9B2 VHH-Fc (Fc fusion)", "chain": "QVQLVESGGGLVQPGGSLRLSCAASGFTLDNYAIGWFRQAPGKEREGVSCISSSDGDTQYADSVKGRFTISRDNAKNTVYLQMNSLKPEDTAVYYCAVEKVYARSWFFHLCSELDFGSWGQGTQVTVSS"}, "B11": {"name": "11F8 VHH-Fc (Fc fusion)", "chain": "QVQLVESGGGLVQAGGSLRLSCAASGRTVGYYAVGWFRQAPGKERDFVAAISWSGRNTNYADSVTGRFTIFRDNAKNTVDLQMNSLKPEDTAVYYCAADYWNYGSGSEVPNNYDTWGQGTQVTVSS"}, "B12": {"name": "13C8 VHH-Fc (Fc fusion)", "chain": "QVQLVESGGGLVQAGGSLRLSCAASGRTVNKYMTGWFRQTPGKEREFVASIDWSSTTTHYANSVKGRFTISRDKVKNTVYLQMNGLKPEDTAVYYCAAHQDSSYGYTILPIDYDSWGQGTQVTVSS"}, "B13": {"name": "8E9 VHH-Fc (Fc fusion)", "chain": "QVQLVESGGGLVEAGGSLRLSCVASGSSSSINAMGWYRQAPGKQRELVASISHDGETKYANSVKGRFTISRGNAKNTIYLQMNSLKPEDTAVYYCVGDVAWVVVAGEYDYWGQGTQVTVSS"}}}
{"target": "SARS-CoV prefusion-stabilized spike protein (SARS-CoV-PreS) (SARS-CoV, UniProt P59594 14-1190)", "assay": "ELISA", "units": {"EC50": "pM"}}
{"binder": "B1", "EC50": 50}
{"binder": "B2", "EC50": 60}
{"binder": "B3", "EC50": 130}
{"binder": "B4", "EC50": 90}
{"binder": "B5", "EC50": 30}
{"binder": "B6", "EC50": 80}
{"binder": "B7", "EC50": 180}
{"binder": "B8", "EC50": 40}
{"binder": "B9", "EC50": 60}
{"binder": "B10", "EC50": 120}
{"binder": "B11", "EC50": 180}
{"binder": "B12", "EC50": 100}
{"binder": "B13", "EC50": 80}
